This is an account of results in patent US20180148485A1 (Pieris, published 2018).

Read-outs that look alike come from different tables or passages of the source.

Experiment [1] has as its target T1, recombinant human CD137-Fc fusion protein (#838-4B-100, R&D Systems) (human, UniProt Q07011 24-186).
T1 construct: also called Fc-fusion of human CD137; not shown: Fc part of the bought fusion protein, not described
Put plainly: ELISA, CD137-Fc coated, as described in Example 3. The source says:
The data was fitted with a 1:1 binding model with EC50 value and the maximum signal as free parameters, and a slope that was fixed to unity.
For orientation: In an ELISA, binding on a coated surface is turned into a signal by an enzyme label.

Experiment [2] addresses T1, recombinant human CD137-Fc fusion …. Put plainly: SPR, CD137-Fc captured by anti-human Fc antibody on CM5 chip, 1:1 model. On the procedure:
Binding affinities of the CD137-binding lipocalin mutein and the bispecific polypeptides of SEQ ID NO: 46 and SEQ ID NO: 47 to recombinant human CD137-Fc fusion protein (#838-4B-100, R&D Systems) were determined by Surface Plasmon Resonance using a Biacore T200 instrument (GE Healthcare) in analogy to Example 6. Prior to the SPR affinity assay, a CM5 sensor chip was derivatized with an anti-human Fc antibody using the Human Antibody Capture Kit (GE Healthcare # BR-1008-39) according to the manufacturer's instructions.
Four different concentrations (1000 nM, 200 nM, 40 nM and 8 nM) of the bispecific polypeptides were prepared in running buffer (10 mM HEPES, 150 mM NaCl, 0.05% v/v Surfactant P20, 3 mM EDTA, pH 7.4 (GE Healthcare)) and applied to the chip surface. Applying a flow rate of 30 μL/min, the sample contact time was 180 s and dissociation time was 600 s. All measurements were performed at 25° C. […] Prior to the protein measurements three regeneration cycles were performed for conditioning purposes. Data were evaluated with Biacore T200 Evaluation software (V 2.0). Double referencing was used and the 1:1 Binding model was used to fit the raw data.
For orientation: Surface plasmon resonance follows binding to a sensor surface in real time, without labels.

For experiment [3] the target is unchanged. Put plainly: ELISA, CD137-Fc coated, as described in Example 3. The source holds these as a separate data set.
Experiment [4] has the same target. In words: SPR, biotinylated CD137-Fc captured on CAP chip, in analogy to Example 6. On the procedure:
Biotinlated CD137-Fc was immobilized on sensor chip and binding of the fusion polypeptides and lipocalin mutein was analyzed at different concentrations.

Experiment [5] addresses T2, recombinant human GPC3 (R&D Systems #2119-GP-050/CF) (human, UniProt P51654 25-559).
T2 construct: also called Glypican-3; biotinylated human GPC3
Put plainly: SPR, biotinylated GPC3 captured on CAP chip, 1:1 model, apparent affinity. On the procedure: Biotinlated GPC3 was immobilized on a sensor chip and binding of the fusion polypeptides and lipocalin mutein was analyzed at different concentrations.

Experiment [6] has as its target T2, recombinant human GPC3 (R&D Systems …). Put plainly: ELISA, GPC3 coated, anti-NGAL-HRP detection. From the text:
GPC3 was coated on a microtiter plate and the tested molecules were titrated. […] The data was fitted with a 1:1 binding model with EC50 value and the maximum signal as free parameters, and a slope that was fixed to unity.

Experiment [7] has the same target. In words: ELISA, GPC3 coated, anti-NGAL-HRP detection. The source says:
GPC3 was coated on a microtiter plate and the tested molecules were titrated. Bound molecules were detected via an HRP-labeled anti-human NGAL-specific antibody as described in Example 12. The data was fitted with a 1:1 binding model with EC50 value and the maximum signal as free parameters, and a slope that was fixed to unity.
The source holds these as a separate data set.

Experiment [8] has the same target. In words: SPR (Biacore T200), biotinylated GPC3 captured on CAP chip, 1:1 model, apparent affinity. Here is the method:
In the SPR affinity assay, biotinylated GPC3 was captured on a sensor chip (“CAP chip”) using the Biotin CAPture Kit (GE Healthcare): sensor Chip CAP is pre-immobilized with an ssDNA oligo. Undiluted Biotin CAPture Reagent (streptavidin conjugated with the complementary ss-DNA oligo) was applied at a flow rate of 2 μL/min for 300 s. For analysis of the lipocalin mutein, biotinylated GPC3 at a concentration of 1 μg/mL was used and 0.25 μg/mL of biotinylated GPC3 for the fusions proteins. The biotinylated GPC3 was applied for 300 s at a flow rate of 5 μL/min. GPC3 was biotinylated by incubation with EZ-Link® NHS-PEG4-Biotin (5-fold molar excess (Thermo Scientific)) during two hours at room temperature. The excess of non-reacted biotin reagent was removed by loading the reaction mixture onto a Zeba™ Spin Desalting Plate (Thermo Scientific). The reference channel was loaded with Biotin CAPture Reagent only.
Applying a flow rate of 30 μL/min, the sample contact time was 180 s and dissociation time was 1200 s. All measurements were performed at 25° C. […] Prior to the protein measurements three regeneration cycles were performed for conditioning purposes. Data were evaluated with Biacore T200 Evaluation software (V 2.0). Double referencing was used and the 1:1 Binding model was used to fit the raw data.

The target is the same in experiment [9]. In words: ELISA, GPC3 coated, anti-NGAL-HRP detection. Here is the method: The target was dissolved in PBS (1 μg/mL) and coated overnight on microtiter plates at 4° C. The plate was washed after each incubation step with […] PBS supplemented with 0.1% (v/v) Tween 20 (PBS-T) five times. The plates were blocked with 2% BSA (w/v) in PBS-T for 1 h at room temperature and subsequently washed. Different concentrations of the lipocalin mutein (SEQ ID NO: 10) or the fusion polypeptides were added to the wells and incubated for 1 h at room temperature, followed by a wash step. Bound fusion protein or lipocalin mutein was detected after incubation with 1:1000 diluted anti-human NGAL antibody conjugated to HRP in PBS-T supplemented with 2% (w/v) BSA (PBS-TB). After an additional wash step, fluorogenic HRP substrate (QuantaBlu, Thermo) was added to each well and the fluorescence intensity was detected using a fluorescence microplate reader.
The result of the experiment is depicted in FIG. 2, together with the fit curves resulting from a 1:1 binding sigmoidal fit, where the EC50 value and the maximum signal were free parameters, and the slope was fixed to unity.
This is another data set of the same source.

T2 sequence (P51654 25-559 limits assumed): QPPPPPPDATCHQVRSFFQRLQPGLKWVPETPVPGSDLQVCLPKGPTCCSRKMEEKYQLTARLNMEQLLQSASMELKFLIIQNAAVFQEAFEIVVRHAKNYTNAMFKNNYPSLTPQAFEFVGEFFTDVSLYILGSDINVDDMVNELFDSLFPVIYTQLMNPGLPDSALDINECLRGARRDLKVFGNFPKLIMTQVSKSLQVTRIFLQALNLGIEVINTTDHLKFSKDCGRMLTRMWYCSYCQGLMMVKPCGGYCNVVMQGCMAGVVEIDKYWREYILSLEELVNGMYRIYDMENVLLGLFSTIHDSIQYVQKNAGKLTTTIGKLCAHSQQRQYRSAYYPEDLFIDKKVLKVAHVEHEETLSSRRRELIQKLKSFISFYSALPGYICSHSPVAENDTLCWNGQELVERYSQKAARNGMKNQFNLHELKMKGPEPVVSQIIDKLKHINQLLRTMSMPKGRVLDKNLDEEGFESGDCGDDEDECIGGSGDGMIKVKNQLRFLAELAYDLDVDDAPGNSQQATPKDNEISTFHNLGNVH

B1: CD137-binding lipocalin mutein of SEQ ID NO: 26 (designed binder)
chain: QDSTSDLIPAPPLSKVPLQQNFQDNQFHGKWYVVGQAGNIRLREDKDPIKMMATIYELKEDKSYDVTMVKFDDKKCMYDIWTFVPGSQPGEFTLGKIKSFPGHTSSLVRVVSTNYNQHAMVFFKFVFQNREEFYITLYGRTKELTSELKENFIRFSKSLGLPENHIVFPVPIDQCIDG
A word on the EC50: it is the concentration that produces a half-maximal response. Take B1: the EC50 is 0.43 nM in [1] and 0.28 nM in experiment [3]. In addition, the Kd was 0.0023 nM in experiment [2] and 2.3 nM in [4].

B2: GPC3-binding lipocalin mutein of SEQ ID NO: 10 (designed binder)
chain: QDSTSDLIPAPPLSKVPLQQNFQDNQFQGKWYVVGRAGNVGLREDKDPPKMWATIYELKEDKSYDVTNVRFARKKCTYSIGTFVPGSQPGEFTLGQIKSEPGGTANLVRVVSTNYNQHAMVFFKEVYQNREIFFIILYGRTKELTSELKENFIRFSKSLGLPENHIVFPVPIDQCIDG
notes: hNGAL-based lipocalin mutein; also called GPC3 lipocalin mutein
B2: the Kd worked out at 0.033 nM in experiment [5] and 0.012 nM in experiment [8]. Moreover, the values for the EC50 in experiment [6], in experiment [7] and in experiment [9] were 0.32 nM, 0.55 nM and 0.55 nM, respectively.
